Assays:
[1] = biological target: the molecule itself; assay: in vitro reconstitution of S-layer sheets, seen by cryo-EM and cryo-ET
[2] = biological target: the molecule itself; assay: crystal structure

Row | Protein | binding result [1] | stoichiometry N [2]
1 | RsaA, S-layer protein of Caulobacter crescentus CB15N (NA1000), full length, purified (natural protein) MAYTTAQLVTAYTNANLGKAPDAATTLTLDAYATQTQTGGLSDAAALTNTLKLVNSTTAVAIQTYQFFTGVAPSAAGLDFLVDSTTNTNDLNDAYYSKFAQENRFINFSINLATGAGAGATAFAAAYTGVSYAQTVATAYDKIIGNAVATAAGVDVAAAVAFLSRQANIDYLTAFVRANTPFTAAADIDLAVKAALIGTILNAATVSGIGGYATATAAMINDLSDGALSTDNAAGVNLFTAYPSSGVSGSTLSLTTGTDTLTGTANNDTFVAGEVAGAATLTVGDTLSGGAGTDVLNWVQAAAVTALPTGVTISGIETMNVTSGAAITLNTSSGVTGLTALNTNTSGAAQTVTAGAGQNLTATTAAQAANNVAVDGGANVTVASTGVTSGTTTVGANSAASGTVSVSVANSSTTTTGAIAVTGGTAVTVAQTAGNAVNTTLTQADVTVTGNSSTTAVTVTQTAAATAGATVAGRVNGAVTITDSAAASATTAGKIATVTLGSFGAATIDSSALTTVNLSGTGTSLGIGRGALTATPTANTLTLNVNGLTTTGAITDSEAAADDGFTTINIAGSTASSTIASLVAADATTLNISGDARVTITSHTAAALTGITVTNSVGATLGAELATGLVFTGGAGADSILLGATTKAIVMGAGDDTVTVSSATLGAGGSVNGGDGTDVLVANVNGSSFSADPAFGGFETLRVAGAAAQGSHNANGFTALQLGATAGATTFTNVAVNVGLTVLAAPTGTTTVTLANATGTSDVFNLTLSSSAALAAGTVALAGVETVNIAATDTNTTAHVDTLTLQATSAKSIVVTGNAGLNLTNTGNTAVTSFDASAVTGTGSAVTFVSANTTVGEVVTIRGGAGADSLTGSATANDTIIGGAGADTLVYTGGTDTFTGGTGADIFDINAIGTSTAFVTITDAAVGDKLDLVGISTNGAIADGAFGAAVTLGAAATLAQYLDAAAAGDGSGTSVAKWFQFGGDTYVVVDSSAGATFVSGADAVIKLTGLVTLTTSAFATEVLTLA | binds | 
2 | RsaA(249-1026), the N-terminally cleaved RsaA in the crystals (domain or fragment) GSTLSLTTGTDTLTGTANNDTFVAGEVAGAATLTVGDTLSGGAGTDVLNWVQAAAVTALPTGVTISGIETMNVTSGAAITLNTSSGVTGLTALNTNTSGAAQTVTAGAGQNLTATTAAQAANNVAVDGGANVTVASTGVTSGTTTVGANSAASGTVSVSVANSSTTTTGAIAVTGGTAVTVAQTAGNAVNTTLTQADVTVTGNSSTTAVTVTQTAAATAGATVAGRVNGAVTITDSAAASATTAGKIATVTLGSFGAATIDSSALTTVNLSGTGTSLGIGRGALTATPTANTLTLNVNGLTTTGAITDSEAAADDGFTTINIAGSTASSTIASLVAADATTLNISGDARVTITSHTAAALTGITVTNSVGATLGAELATGLVFTGGAGADSILLGATTKAIVMGAGDDTVTVSSATLGAGGSVNGGDGTDVLVANVNGSSFSADPAFGGFETLRVAGAAAQGSHNANGFTALQLGATAGATTFTNVAVNVGLTVLAAPTGTTTVTLANATGTSDVFNLTLSSSAALAAGTVALAGVETVNIAATDTNTTAHVDTLTLQATSAKSIVVTGNAGLNLTNTGNTAVTSFDASAVTGTGSAVTFVSANTTVGEVVTIRGGAGADSLTGSATANDTIIGGAGADTLVYTGGTDTFTGGTGADIFDINAIGTSTAFVTITDAAVGDKLDLVGISTNGAIADGAFGAAVTLGAAATLAQYLDAAAAGDGSGTSVAKWFQFGGDTYVVVDSSAGATFVSGADAVIKLTGLVTLTTSAFATEVLTLA |  | 6

— PMC5699643 (Nature microbiology, 2017)
